From US20150017651A1 (University of Texas, published 2015)

Molecular target: T1, flag-tagged Gli1S84E (human, UniProt P08151 1-1106)
T1 construct: not shown: flag tag from vector p3flag-CMV10
T1 sequence (looked up): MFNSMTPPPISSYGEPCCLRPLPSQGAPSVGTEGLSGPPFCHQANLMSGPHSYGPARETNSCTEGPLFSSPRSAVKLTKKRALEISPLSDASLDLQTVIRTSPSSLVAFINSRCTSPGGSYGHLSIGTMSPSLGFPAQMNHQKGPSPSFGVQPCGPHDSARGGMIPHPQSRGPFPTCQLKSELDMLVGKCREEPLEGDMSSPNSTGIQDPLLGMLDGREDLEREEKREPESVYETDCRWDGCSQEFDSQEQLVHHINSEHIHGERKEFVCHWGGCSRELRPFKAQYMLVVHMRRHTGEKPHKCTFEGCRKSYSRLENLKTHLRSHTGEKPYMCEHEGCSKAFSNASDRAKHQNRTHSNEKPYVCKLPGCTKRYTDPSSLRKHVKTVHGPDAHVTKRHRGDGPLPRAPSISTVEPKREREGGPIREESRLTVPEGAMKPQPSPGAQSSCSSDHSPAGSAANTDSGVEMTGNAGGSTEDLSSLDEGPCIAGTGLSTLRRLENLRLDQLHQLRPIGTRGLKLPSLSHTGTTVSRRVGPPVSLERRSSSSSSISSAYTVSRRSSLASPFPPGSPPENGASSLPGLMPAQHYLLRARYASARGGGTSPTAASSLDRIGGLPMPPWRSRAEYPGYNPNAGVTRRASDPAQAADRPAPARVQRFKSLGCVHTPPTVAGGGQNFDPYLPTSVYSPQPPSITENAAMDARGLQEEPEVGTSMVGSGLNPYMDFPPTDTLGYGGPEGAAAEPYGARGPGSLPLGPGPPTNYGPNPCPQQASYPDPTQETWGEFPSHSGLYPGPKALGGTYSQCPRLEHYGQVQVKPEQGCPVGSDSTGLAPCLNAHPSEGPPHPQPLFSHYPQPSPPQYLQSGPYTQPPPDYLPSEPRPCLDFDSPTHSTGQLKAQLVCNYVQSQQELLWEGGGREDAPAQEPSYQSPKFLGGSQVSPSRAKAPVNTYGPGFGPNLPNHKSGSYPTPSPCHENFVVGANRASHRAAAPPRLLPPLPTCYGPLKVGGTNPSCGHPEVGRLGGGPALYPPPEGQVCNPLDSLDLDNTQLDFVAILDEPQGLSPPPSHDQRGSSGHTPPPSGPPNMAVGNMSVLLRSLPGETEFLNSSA
Assay: IP-Western, flag-tagged Gli1S84E transfected into BE3 cells
Method: FIGS. 13A-13K. related to FIG. 5. […] FIG. 13A. Luciferase assay of Gli reporter in the stable clones treated by TNFα alone (5 ng/mL) or TNFα plus rapamycin (100 nM). Error bars represent SD (n=3). FIG. 13B. Gli1 immunofluorescence staining in several BE3 stable clones with TNFα treatment. Scale bar=100 μm for original picture and 25 μm for inset. FIG. 13C. The regulation of p-Gli1 by TNFα alone or together with rapamycin (10, 50, and 100 nM) in the BE3 stable clone. FIG. 13D. MTT assay of the various Gli1 stable clones. All cells were counted, and then 3,000 cells were seeded in each well of a 96-well plate. Error bars represent SD (n=3). FIG. 13E. Soft-agar assay of the various Gli1 stable clones. All cells were counted, and then 1,000 cells were mixed with agarose for each well of a 24-well plate. Left, representative microscopic images. Right, quantitation of colony formation. Error bars represent SD (n=3). FIG. 13F. Invasion assay of the various Gli1 stable clones. All cells were counted, and then 1,000 cells were seeded on matrigel in transwells. Left, representative microscopic images from the bottom side of transwell membranes. Right, quantitation of invasive cells. Error bars represent SD (n=3). FIGS. 13G-13I. The assays of MTT (G), soft agar (H), and invasion (I) using the BE3 stable clones treated with TNFα.

- binding result: binds
B1: SuFu (other, human, UniProt Q9UMX1 1-484, looked up)
chain: MAELRPSGAPGPTAPPAPGPTAPPAFASLFPPGLHAIYGECRRLYPDQPNPLQVTAIVKYWLGGPDPLDYVSMYRNVGSPSANIPEHWHYISFGLSDLYGDNRVHEFTGTDGPSGFGFELTFRLKRETGESAPPTWPAELMQGLARYVFQSENTFCSGDHVSWHSPLDNSESRIQHMLLTEDPQMQPVQTPFGVVTFLQIVGVCTEELHSAQQWNGQGILELLRTVPIAGGPWLITDMRRGETIFEIDPHLQERVDKGIETDGSNLSGVSAKCAWDDLSRPPEDDEDSRSICIGTQPRRLSGKDTEQIRETLRRGLEINSKPVLPPINPQRQNGLAHDRAPSRKDSLESDSSTAIIPHELIRTRQLESVHLKFNQESGALIPLCLRGRLLHGRHFTYKSITGDMAITFVSTGVEGAFATEEHPYAAHGPWLQILLTEEFVEKMLEDLEDLTSPEEFKLPKEYSWPEKKLKVSILPDVVFDSPLH
notes: also called suppressor of fused
